In patent US7244591:

Target: T1, recombinant human parathyroid hormone (hPTH), intact molecule (1-84), P01270
T1 chain: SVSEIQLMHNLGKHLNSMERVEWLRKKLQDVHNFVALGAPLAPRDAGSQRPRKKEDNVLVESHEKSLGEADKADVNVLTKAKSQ

B1: Yapsin 1 (protein)
chain: ADGYEEIIITNQQSFYSVDLEVGTPPQNVTVLVDTGSSDLWIMGSDNPYCSSNSMGSSRRRVIDKRDDSSSGGSLINDINPFGWLTGTGSAIGPTATGLGGGSGTATQSVPASEATMDCQQYGTFSTSGSSTFRSNNTYFSISYGDGTFASGTFGTDVLDLSDLNVTGLSFAVANETNSTMGVLGIGLPELEVTYSGSTASHSGKAYKYDNFPIVLKNSGAIKSNTYSLYLNDSDAMHGTILFGAVDHSKYTGTLYTIPIVNTLSASGFSSPIQFDVTINGIGISDSGSSNKTLTTTKIPALLDSGTTLTYLPQTVVSMIATELGAQYSSRIGYYVLDCPSDDSMEIVFDFGGFHINAPLSSFILSTGTTCLLGIIPTSDDTGTILGDSFLTNAYVVYDLENLEISMAQARYNTTSENIEIITSSVPSAVKAPGYTNTWSTSASIVTGGNIFTVNSSQTASFSGNLTTSTASATSTSSKRN
**Q.** How did the “cleavage of secreted hPTH into the truncated d1 form (27-84), SDS-PAGE of culture supernatants of wild-type and yps1-disrupted strains” value turn out when B1 was run?
**A.** The value was “the main protease causative of the cleavage of hPTH in the early culture stage is Yapsin 1”.
